The test system of this series is MS2 coat protein. Put plainly: apparent KD of MS2 coat protein; designed switch direction (-1 OFF switch, 1 ON switch): -1; higher = weaker reporter binding. In outline:
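The apparent KD reported per design is the median over clusters of curve fits to normalised cluster fluorescence. The RNA switches were transcribed on Illumina chips by stalled E. coli RNA polymerase. SNAP-549-labelled MS2 coat protein was titrated from 0.7 or 1.5 nM, doubling up to 3 µM, in Tris-HCl pH 7.5 buffer containing KCl, MgCl2, BSA, DTT, tRNA and Tween-20, with no input, 200 uM small-molecule ligand, or an oligonucleotide input.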

The mark [1] stands for this setting: input ligand: microRNA oligo, concentration not stated.
Where [2] appears, read: Eterna round: R95, input ligand: FMN 200 uM.
Setting [3] is: Eterna round: R95, input ligand: microRNA oligo, concentration not stated.
Setting [4] is: Eterna round: R95, input ligand: none.

For “AACAAAAGCGUAGGAUAUGACUGGGCUCAUGCCUAACAUAACUACAAACAUGAGGAUCACCCAUGUCAGAAGGACGAAUAAAAU [Isesbequti] (Eterna round: R96, puzzle: Exclusion NG 2)”, the “apparent KD of MS2 coat protein” value (input ligand: FMN 200 uM) was 87.1 nM, the “apparent KD of MS2 coat protein” value under setting [1] amounted to 57.5 nM and the “apparent KD of MS2 coat protein” value (input ligand: none) was 72 nM.

Turning to “AAAUUAGCAAGUAGGUCCGACAUGAGGAUCACCCAUGUAAGCUAAUCUUACGCUGCAUGAGAGUGCGCUCGUCUUAA [Sensor-V1 #19] (Eterna round: R97, puzzle: Sensor, turn-off variant 1)”, the “apparent KD of MS2 coat protein” value reads like this: (input ligand: FMN 200 uM) 360 nM; (input ligand: none) 515 nM.

On to “AGUUGGCGAGGAUAUACAUGAGGAUCACCCAUGUGUGAGAUAUAAGUGAGGUAAAUAUGUAGAAGGCGCUGACA [JR_Ex3_Sub079] (Eterna round: R97, puzzle: Exclusion 3)”, for which the “apparent KD of MS2 coat protein” value (input ligand: FMN 200 uM) was 18.4 nM and the “apparent KD of MS2 coat protein” value (input ligand: none) is 425 nM.

With “ACUCACUCGCGAGGAUAUGGACAAAUAUAAACGCUAGAAGGCGCGACAUGAGGAUCACCCAUGUACUCACUCACUCACUCACAU [my 1st design ever] (Eterna round: R96, puzzle: Exclusion NG 1)”, the “apparent KD of MS2 coat protein” value (input ligand: FMN 200 uM) came to 62.6 nM, the “apparent KD of MS2 coat protein” value under setting [1] came to 27.5 nM and the “apparent KD of MS2 coat protein” value (input ligand: none) was 41.9 nM.

For the sequence “UUAUAUAGGUAGGAUAUCGAUUUUAAUUAAUAUCGAGAAGGGUCAACAUGAGGAUCACCCAUGUCAGCAUGUAU [LRO-Excl6-04-Rocketman] (Eterna round: R97, puzzle: Exclusion 6)”, the “apparent KD of MS2 coat protein” value reads like this: (input ligand: FMN 200 uM) 60 nM; (input ligand: none) 55.1 nM.

“CCUCUACAUGAGGAUCACCCAUGUGAGGAUAUCAAAGUCAGGGCGGCGCCCUGACUCAUGAGAAGGUGCAUGAA [EX1 A.16] (Eterna round: R97, puzzle: Exclusion 1)”: the “apparent KD of MS2 coat protein” value was determined as 31.8 nM (input ligand: FMN 200 uM) and 22.4 nM (input ligand: none).

Turning to “UUUAAAAUUUCAAUCUUCGCUGGCAAACUUGCGCCAGCUACAUGAGGAUCACCCAUGUUUUUUGCCCGUCUUAUUCU [Inisti] (puzzle: Sensor v3, turn-off variant 2)”, the “apparent KD of MS2 coat protein” value under setting [2] came out at 24.3 nM, the “apparent KD of MS2 coat protein” value under setting [3] is 170 nM and the “apparent KD of MS2 coat protein” value under setting [4] stood at 26.7 nM.

With “CUGAACCCGGUAGGAUAUAUUGUGGGCAAACAUGGAACAACAUGAGGAUCACCCAUGUAAUUUAGGUAGAAGGGCCAAAAGAUU [Excl-NG2-LRO07] (Eterna round: R96, puzzle: Exclusion NG 2)”, the “apparent KD of MS2 coat protein” value turned out to be 77.9 nM (input ligand: FMN 200 uM), 50.4 nM under setting [1] and 74.2 nM (input ligand: none).

Regarding “GGUUGGCGAGGAUAUACAUGAGGAUCACCCAUGUGAGCGAAAAAAGUGAGGAAGAAAAGUAGAAGGCGCUGACG [salish99_ex3_r3_020] (puzzle: Exclusion 3)”, the “apparent KD of MS2 coat protein” value is 236 nM under setting [2], 40.1 nM under setting [3] and 63.5 nM under setting [4].

On to “GACACCAAAGGAUAUACAUGAGGAUCACCCAUGUGCUGCAAAAGCUGAGCUCAAAUGUGUAGAAGGUUGAAAUA [Eternabot (Original) Solution 40] (Eterna round: R97, puzzle: Exclusion 3)”, for which the “apparent KD of MS2 coat protein” value (input ligand: FMN 200 uM) was 39 nM and the “apparent KD of MS2 coat protein” value (input ligand: none) was 31.6 nM.

For “UUUAGUUCAGGAUAUGUAGAUUUUAACAUGAGGAUCACCCAUGUAGAUCCUGAAUUAACUACAGAAGGGAACAUUA [Exclusion 5: 2:d] (Eterna round: R96, puzzle: Exclusion 5)”, the “apparent KD of MS2 coat protein” value amounted to 81.1 nM (input ligand: FMN 200 uM), 20.3 nM under setting [1] and 24.7 nM (input ligand: none).

As for “ACGGACCGAGGAUAUGCAUGCAGGAUACCUGGGUCCAAUGGACAUGAGGAUCACCCAUGUAGAAGGCGGAAAUA [Arinisra] (Eterna round: R97, puzzle: Exclusion 2)”, the “apparent KD of MS2 coat protein” value (input ligand: FMN 200 uM) stood at 86.3 nM and the “apparent KD of MS2 coat protein” value (input ligand: none) turned out to be 31.4 nM.

Consider “GCUUGUAGAGGAUAUACGAGGGCCCGAGCGGAUAACACCGCACAUGAGGAUCACCCAUGUAGAAGGCUACUAUU [JL-ex2-4.18 ViennaUCT mod] (Eterna round: R97, puzzle: Exclusion 2)”, for which the “apparent KD of MS2 coat protein” value was found to be 96 nM (input ligand: FMN 200 uM) and 105 nM (input ligand: none).

Take “UAUUUGCAAGCGAGAUCCCACAUGAGGAUCACCCAUGUUCUUGGAAAGUACAGAAUUACUGUACAAGCUCGUCUUAU [Winner reversed engineered 32] (Eterna round: R97, puzzle: Sensor, turn-off variant 1)”: the “apparent KD of MS2 coat protein” value turned out to be 22.1 nM (input ligand: FMN 200 uM) and 25.7 nM (input ligand: none).

Take “UUUAAUUGUGACAUGGGUGACAUGAGGAUCACCCAUGUCACAAGCUUUUUGCUCGUCUUAUAAUUAACCCAUGUCAC [Stov1/13-A1] (Eterna round: R97, puzzle: Sensor, turn-off variant 1)”: the “apparent KD of MS2 coat protein” value is, setting by setting: (input ligand: FMN 200 uM) 25.6 nM; (input ligand: none) 27.7 nM.

Consider “GCUGCAUCAGGAUAUAUACGGUAUCACAUGAGGAUCACCCAUGUUCGUGUGGAACUGAACGUAGAAGGGAUUAGAU [Aramaa] (puzzle: Exclusion 5)”, for which the “apparent KD of MS2 coat protein” value under setting [2] worked out at 31.1 nM, the “apparent KD of MS2 coat protein” value under setting [3] is 28.3 nM and the “apparent KD of MS2 coat protein” value under setting [4] is 24.5 nM.

Turning to “AGUACUAACACGUUAGUGUUAGUACAAUAAGCUUGUGAAACAUGAGGAUCACCCAUGUCCUCAUAAGCUCGUCUUAU [salish99_TOv2_r3_056] (Eterna round: R96, puzzle: Sensor v3, turn-off variant 2)”, the “apparent KD of MS2 coat protein” value turned out to be 16 nM (input ligand: FMN 200 uM), 466 nM under setting [1] and 17.9 nM (input ligand: none).

For the sequence “GGGUGACAUGAGGAUCACCCAUGUCAGGAUAUUGAUCGUGAUCGGAAAUGAUCGUGAUCGAGAAGGGACUGCCC [-27.4, -26.4 kcal, A 27% sequence 2] (Eterna round: R97, puzzle: Exclusion 1)”, the “apparent KD of MS2 coat protein” value is, setting by setting: (input ligand: FMN 200 uM) 224 nM; (input ligand: none) 52 nM.

As for “CAGGCGUCUGUGCGUGGUGACAUGAGGAUCACCCAUGUUUUGCUCGUUUUGUCUUGGGCUCGGCGCCCGGGUUCGGG [-24.5, -48.6, A 9%] (Eterna round: R97, puzzle: Sensor, turn-off variant 1)”, the “apparent KD of MS2 coat protein” value (input ligand: FMN 200 uM) came to 181 nM and the “apparent KD of MS2 coat protein” value (input ligand: none) is 208 nM.

On to “CGGGCGCGUGUAGGAUAUCGGGCCCGGUGGGCCCGAGAAGGACAUGAGGAUCACCCAUGUGCCCGGGUUGCCCGGGCGCGCCCG [-50, -49 kcal and 14% A] (Eterna round: R96, puzzle: Exclusion NG 1)”, for which the “apparent KD of MS2 coat protein” value runs as follows: (input ligand: FMN 200 uM) 14.6 nM; under setting [1], 7.82 nM; (input ligand: none) 14.5 nM.

Regarding “ACAUGAGGAUCACCCAUGUGAAAACAAUGGCUGACACAGAGAUAGGAUAUAUGUGCAUAUCAAACAUAGAAGGGUCAUUACUGG [Deportation 86 - Jieux - Exclusion NG 3] (Eterna round: R96, puzzle: Exclusion NG 3)”, the “apparent KD of MS2 coat protein” value turned out to be 42.6 nM (input ligand: FMN 200 uM), 40.2 nM under setting [1] and 46.2 nM (input ligand: none).

Regarding “UAUUCUGGAGGAUAUACAUGAGGAUCACCCAUGUAAAUUGUACAGAGCGGGAGUCUAUGUAGAAGGCUAGGACA [EX3 C.2] (Eterna round: R97, puzzle: Exclusion 3)”, the “apparent KD of MS2 coat protein” value by setting is: (input ligand: FMN 200 uM) 60.8 nM; (input ligand: none) 19.1 nM.

Turning to “UUUUUGUGAGGAUAUCAGUAGUAAAAAAAUAAAAUUACUACUGAGAAGGCACAUGAGGAUCACCCAUGUUCCUU [salish99_ex4_r3_011] (puzzle: Exclusion 4)”, the “apparent KD of MS2 coat protein” value under setting [3] is 14.5 nM.

As for “AUUGAUGUUGAGGAUAUGCUUUUAUUUAUUAUAGCAGAAGGCGAUACAUGAGGAUCACCCAUGUUCAUGGCUUU [JR_E6_Sub097] (puzzle: Exclusion 6)”, the “apparent KD of MS2 coat protein” value under setting [3] is 11 nM.

“CCGCUCCGUGUAGGAUAUUGGCCUGCUCUGGGUCGAGAAGGACAUGAGGAUCACCCAUGUAUGUUAUUAUCACGCGUGGCGCAU [Design 80] (Eterna round: R96, puzzle: Exclusion NG 1)”: the “apparent KD of MS2 coat protein” value runs as follows: (input ligand: FMN 200 uM) 41.8 nM; under setting [1], 18.9 nM; (input ligand: none) 29.3 nM.

As to “CAUACUAAAGUCAGGAUAUGCAGUCGAAUACGGGUGUAGAAGGGACAUGAGGAUCACCCAUGUAGAUAGUAAAG [EX-4 Malc #20] (puzzle: Brourd's mod of Exclusion 4)”, the “apparent KD of MS2 coat protein” value runs as follows: under setting [2], 37.9 nM; under setting [3], 48.9 nM; under setting [4], 42.2 nM.

Turning to “GUUUCGAGACGGAGAUCCGACAUGAGGAUCACCCAUGUCUCGUAAGCUUUUUGCUCGUCUUAUACUCCUCUGUUCUC [Elimod 49 - Jieux - Sensor, turn-off variant 1] (Eterna round: R97, puzzle: Sensor, turn-off variant 1)”, the “apparent KD of MS2 coat protein” value is 26 nM (input ligand: FMN 200 uM) and 27.2 nM (input ligand: none).

On to “ACACAGAUAGGAUAUCGGACUAUGGACAUGAGGAUCACCCAUGUGCGUCCAAUGUCCGACCGAGAAGGAUCAACAG [Teesvete] (puzzle: Exclusion 5)”, for which the “apparent KD of MS2 coat protein” value under setting [2] was determined as 146 nM, the “apparent KD of MS2 coat protein” value under setting [3] was 51.8 nM and the “apparent KD of MS2 coat protein” value under setting [4] is 77 nM.

With “CACCUGAAGAGAGGAUAUGAUACAUGAGGAUCACCCAUGUAAUAAAUGAGAAUUUCGAAUGUAAUUCAGAAGGCUCAAUAAGGC [Ostricism 94 - Jieux - Exclusion NG 2] (Eterna round: R96, puzzle: Exclusion NG 2)”, the “apparent KD of MS2 coat protein” value reads like this: (input ligand: FMN 200 uM) 107 nM; under setting [1], 50.8 nM; (input ligand: none) 52 nM.

Regarding “UAGGUACGAGGAUAUACAUAGAUACAGACACAUGUAGAUGUACAUGAGGAUCACCCAUGUAGAAGGCGUAUAUA [Mat - Same state - Mayanna Mod - D110] (Eterna round: R96, puzzle: Exclusion 2)”, under setting [1], the “apparent KD of MS2 coat protein” value is 60.7 nM.

The values above are taken from the supplement of paper PMC9170038.
